Reference: publication PMC7367873, “Dissecting the sequence determinants for dephosphorylation by the catalytic subunits of phosphatases PP1 and PP2A” (Nature Communications, 2020)
Blank lines part the entries; values can stand above or below the molecule they belong to.

What was measured:
[1] = system: GFP-14-3-3β and its binding proteins; assay: GFP-14-3-3β co-IP with LC-MS/MS label-free quantification, untreated versus PP1c-treated; set-up: species or system human; details: pairwise comparison PP1 vs untreated, student's t-test; 3 replicates each; LC-MS/MS label-free quantification
GFP-14-3-3β = GFP-14-3-3β co-IP with LC-MS/MS, untreated GFP-14-3-3β versus GFP control (14-3-3 interactome); format: binding, human; details: pairwise comparison untreated GFP-14-3-3β vs GFP, student's t-test; 3 replicates each; LC-MS/MS label-free quantification

B2: SKIV2L2 (protein, UniProt P42285 2-1042, looked up)
Exosome RNA helicase MTR4: ADAFGDELFSVFEGDSTTAAGTKKDKEKDKGKWKGPPGSADKAGKRFDGKLQSESTNNGKNKRDVDFEGTDEPIFGKKPRIEESITEDLSLADLMPRVKVQSVETVEGCTHEVALPAEEDYLPLKPRVGKAAKEYPFILDAFQREAIQCVDNNQSVLVSAHTSAGKTVCAEYAIALALREKQRVIFTSPIKALSNQKYREMYEEFQDVGLMTGDVTINPTASCLVMTTEILRSMLYRGSEVMREVAWVIFDEIHYMRDSERGVVWEETIILLPDNVHYVFLSATIPNARQFAEWICHLHKQPCHVIYTDYRPTPLQHYIFPAGGDGLHLVVDENGDFREDNFNTAMQVLRDAGDLAKGDQKGRKGGTKGPSNVFKIVKMIMERNFQPVIIFSFSKKDCEAYALQMTKLDFNTDEEKKMVEEVFSNAIDCLSDEDKKLPQVEHVLPLLKRGIGIHHGGLLPILKETIEILFSEGLIKALFATETFAMGINMPARTVLFTNARKFDGKDFRWISSGEYIQMSGRAGRRGMDDRGIVILMVDEKMSPTIGKQLLKGSADPLNSAFHLTYNMVLNLLRVEEINPEYMLEKSFYQFQHYRAIPGVVEKVKNSEEQYNKIVIPNEESVVIYYKIRQQLAKLGKEIEEYIHKPKYCLPFLQPGRLVKVKNEGDDFGWGVVVNFSKKSNVKPNSGELDPLYVVEVLLRCSKESLKNSATEAAKPAKPDEKGEMQVVPVLVHLLSAISSVRLYIPKDLRPVDNRQSVLKSIQEVQKRFPDGIPLLDPIDDMGIQDQGLKKVIQKVEAFEHRMYSHPLHNDPNLETVYTLCEKKAQIAIDIKSAKRELKKARTVLQMDELKCRKRVLRRLGFATSSDVIEMKGRVACEISSADELLLTEMMFNGLFNDLSAEQATALLSCFVFQENSSEMPKLTEQLAGPLRQMQECAKRIAKVSAEAKLEIDEETYLSSFKPHLMDVVYTWATGATFAHICKMTDVFEGSIIRCMRRLEELLRQMCQAAKAIGNTELENKFAEGITKIKRDIVFAASLYL
Difference (log2), PP1 vs untreated [1]: -3.184 log2 | Difference (log2), untreated vs GFP (GFP-14-3-3β): 4.62 log2

B3: FAM53B (protein, UniProt Q14153 1-422, looked up)
Protein FAM53B: MVMVLSESLSTRGADSIACGTFSRELHTPKKMSQGPTLFSCGIMENDRWRDLDRKCPLQIDQPSTSIWECLPEKDSSLWHREAVTACAVTSLIKDLSISDHNGNPSAPPSKRQCRSLSFSDEMSSCRTSWRPLGSKVWTPVEKRRCYSGGSVQRYSNGFSTMQRSSSFSLPSRANVLSSPCDQAGLHHRFGGQPCQGVPGSAPCGQAGDTWSPDLHPVGGGRLDLQRSLSCSHEQFSFVEYCPPSANSTPASTPELARRSSGLSRSRSQPCVLNDKKVGVKRRRPEEVQEQRPSLDLAKMAQNCQTFSSLSCLSAGTEDCGPQSPFARHVSNTRAWTALLSASGPGGRTPAGTPVPEPLPPSFDDHLACQEDLSCEESDSCALDEDCGRRAEPAAAWRDRGAPGNSLCSLDGELDIEQIEKN
Difference (log2), PP1 vs untreated [1]: -3.06 log2 | Difference (log2), untreated vs GFP (GFP-14-3-3β): 2.4159 log2

B4: ARHGEF7 (protein, UniProt Q14155 1-803, looked up)
Rho guanine nucleotide …: MNSAEQTVTWLITLGVLESPKKTISDPEGFLQASLKDGVVLCRLLERLLPGTIEKVYPEPRSESECLSNIREFLRGCGASLRLELLFPPSQPPQHLVTTILLSASTFDANDLYQGQNFNKVLSSLVTLNKVTADIGLGSDSVCARPSSHRIKSFDSLGSQSLHTRTSKLFQGQYRSLDMTDNSNNQLVVRAKFNFQQTNEDELSFSKGDVIHVTRVEEGGWWEGTLNGRTGWFPSNYVREVKASEKPVSPKSGTLKSPPKGFDTTAINKSYYNVVLQNILETENEYSKELQTVLSTYLRPLQTSEKLSSANISYLMGNLEEICSFQQMLVQSLEECTKLPEAQQRVGGCFLNLMPQMKTLYLTYCANHPSAVNVLTEHSEELGEFMETKGASSPGILVLTTGLSKPFMRLDKYPTLLKELERHMEDYHTDRQDIQKSMAAFKNLSAQCQEVRKRKELELQILTEAIRNWEGDDIKTLGNVTYMSQVLIQCAGSEEKNERYLLLFPNVLLMLSASPRMSGFIYQGKLPTTGMTITKLEDSENHRNAFEISGSMIERILVSCNNQQDLQEWVEHLQKQTKVTSVGNPTIKPHSVPSHTLPSHPVTPSSKHADSKPAPLTPAYHTLPHPSHHGTPHTTINWGPLEPPKTPKPWSLSCLRPAPPLRPSAALCYKEDLSKSPKTMKKLLPKRKPERKPSDEEFASRKSTAALEEDAQILKVIEAYCTSAKTRQTLNSTWQGTDLMHNHVLADDDQPSLDSLGRRSSLSRLEPSDLSEDSDYDSIWTAHSYRMGSTSRKSCCSYISHQN
Difference (log2), PP1 vs untreated [1]: -3.042 log2 | Difference (log2), untreated vs GFP (GFP-14-3-3β): 2.997 log2

The next lines start with results.

Difference (log2), PP1 vs untreated [1]: -3.258 log2
B1: PDLIM5 (protein, UniProt Q96HC4 2-596, looked up)
PDZ and LIM domain protein 5: SNYSVSLVGPAPWGFRLQGGKDFNMPLTISSLKDGGKAAQANVRIGDVVLSIDGINAQGMTHLEAQNKIKGCTGSLNMTLQRASAAPKPEPVPVQKGEPKEVVKPVPITSPAVSKVTSTNNMAYNKAPRPFGSVSSPKVTSIPSPSSAFTPAHATTSSHASPSPVAAVTPPLFAASGLHANANLSADQSPSALSAGKTAVNVPRQPTVTSVCSETSQELAEGQRRGSQGDSKQQNGPPRKHIVERYTEFYHVPTHSDASKKRLIEDTEDWRPRTGTTQSRSFRILAQITGTEHLKESEADNTKKANNSQEPSPQLASSVASTRSMPESLDSPTSGRPGVTSLTAAAAFKPVGSTGVIKSPSWQRPNQGVPSTGRISNSATYSGSVAPANSALGQTQPSDQDTLVQRAEHIPAGKRTPMCAHCNQVIRGPFLVALGKSWHPEEFNCAHCKNTMAYIGFVEEKGALYCELCYEKFFAPECGRCQRKILGEVISALKQTWHVSCFVCVACGKPIRNNVFHLEDGEPYCETDYYALFGTICHGCEFPIEAGDMFLEALGYTWHDTCFVCSVCCESLEGQTFFSKKDKPLCKKHAHSVNF
Difference (log2), untreated vs GFP (GFP-14-3-3β): 1.189 log2

Difference (log2), PP1 vs untreated [1]: -3.239 log2
B5: ZCCHC8 (protein, UniProt Q6NZY4 2-707, looked up)
Zinc finger CCHC …: AAEVYFGDLELFEPFDHPEESIPKPVHTRFKDDDGDEEDENGVGDAELRERLRQCEETIEQLRAENQELKRKLNILTRPSGILVNDTKLDGPILQILFMNNAISKQYHQEIEEFVSNLVKRFEEQQKNDVEKTSFNLLPQPSSIVLEEDHKVEESCAIKNNKEAFSVVGSVLYFTNFCLDKLGQPLLNENPQLSEGWEIPKYHQVFSHIVSLEGQEIQVKAKRPKPHCFNCGSEEHQMKDCPMPRNAARISEKRKEYMDACGEANNQNFQQRYHAEEVEERFGRFKPGVISEELQDALGVTDKSLPPFIYRMRQLGYPPGWLKEAELENSGLALYDGKDGTDGETEVGEIQQNKSVTYDLSKLVNYPGFNISTPRGIPDEWRIFGSIPMQACQQKDVFANYLTSNFQAPGVKSGNKRSSSHSSPGSPKKQKNESNSAGSPADMELDSDMEVPHGSQSSESFQFQPPLPPDTPPLPRGTPPPVFTPPLPKGTPPLTPSDSPQTRTASGAVDEDALTLEELEEQQRRIWAALEQAESVNSDSDVPVDTPLTGNSVASSPCPNELDLPVPEGKTSEKQTLDEPEVPEIFTKKSEAGHASSPDSEVTSLCQKEKAELAPVNTEGALLDNGSVVPNCDISNGGSQKLFPADTSPSTATKIHSPIPDMSKFATGITPFEFENMAESTGMYLRIRSLLKNSPRNQQKNKKASE
Difference (log2), untreated vs GFP (GFP-14-3-3β): 4.409 log2
